The results in this text go back to the supplement of paper PMC9170038.

Data set [1] deals with MS2 coat protein. Description: apparent KD of MS2 coat protein, switch OFF state (with FMN for OFF switches, without FMN for ON switches); designed switch direction (-1 OFF switch, 1 ON switch): -1; higher = weaker reporter binding. The following applies: FMN input: 0 or 200 uM; Eterna round: R93 (includes R88 designs). Summed up:
(§1)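 Titrations with SNAP-549-labelled MS2 coat protein ran in twofold steps from 0.7 or 1.5 nM to 3 µM, each step taking 0.8–1.5 h at the start and 10–20 min toward the end. The targets were designed RNA switches transcribed on-chip from Illumina sequencing clusters, held in 100 mM Tris-HCl pH 7.5, 80 mM KCl, 4 mM MgCl2, without or with constant ligand. Apparent KD was taken per design as the median of normalised cluster binding-curve fits.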

The subject of data set [2] is MS2 coat protein. Description: apparent KD of MS2 coat protein, switch ON state; designed switch direction (-1 OFF switch, 1 ON switch): -1; higher = weaker reporter binding. The settings on record: FMN input: 0 or 200 uM; Eterna round: R93 (includes R88 designs). Summed up:
as §1

As for “AAGAGUAGAGGAUAUACAUGAGGAUCACCCAUGUAAUCCAGAUAAGGAAGCAUGGCGUGUAGAAGGCUGCAUGA [MOD of Nando (MS2 Riboswitches- Exclusion 3)]”, the “apparent KD of MS2 coat protein” value in data set [1] is 35.2 nM; in data set [2], 28.2 nM.

As to “AAGAUGUCAGGAUAUACAUAAAUAAAAAAUUAUGUUAAAACACAUGAGGAUCACCCAUGUAGAAGGGACAACAA [AJ 6]”, the entries for the “apparent KD of MS2 coat protein” value in data set [1] and in data set [2] were 20.7 nM and 36.4 nM, respectively.

Take “AAGCUGGUAGGAUAUACUAGGGCAACUAAUGCACCGAGAGGACAUGAGGAUCACCCAUGUAGAAGGGCCAGAAA [Mat - Exclusion 2 - JL mod - D63]”: the “apparent KD of MS2 coat protein” value in data set [1] worked out at 82.3 nM; in data set [2], 114 nM.

As to “AAGGGACAUGAGGAUCACCCAUGUCAGGAUAUGAUGCGAAUAAAGAAAGAAUAAAGCAUCAGAAGGGACGCCAA [Mat - Exclusion 1 - Eli mod - D65]”, the “apparent KD of MS2 coat protein” value in data set [1] turned out to be 25.7 nM; in data set [2], 21.1 nM.

As for “AAGGUACGAGGAUAUACAUAGAUACAAACACAUGUGGAUGUACAUGAGGAUCACCCAUGUAGAAGGCGUAUAUA [AJ 22]”, the “apparent KD of MS2 coat protein” value in data set [1] was determined as 84.7 nM; in data set [2], 58.6 nM.

For the sequence “AAGGUACGAGGAUAUACAUAGAUACAGACACAUGUAGAUGUACAUGAGGAUCACCCAUGUAGAAGGCGUAUAUA [AJ 20]”, the “apparent KD of MS2 coat protein” value in data set [1] amounted to 97.5 nM; in data set [2], 60.7 nM.

Take “AAGUAUAGAGGAUAUACAUAGAUACAGAUUCAUGUAGAACUACAUGAGGAUCACCCAUGUAGAAGGCUAUAAUA [AJ 34]”: the entries for the “apparent KD of MS2 coat protein” value in data set [1] and in data set [2] were 27.9 nM and 19.4 nM, respectively.

For “AAGUUGGGAGGAUAUAUAUGGACACACAUUGGUGUAGAACUACAUGAGGAUCACCCAUGUAGAAGGCCCAAAUA [AJ 57]”, the “apparent KD of MS2 coat protein” value was 33.1 nM in data set [1] and 20.3 nM in data set [2].

As for “AAUAACAGAGGAUAUACAAAAAUAAAAGGAAACAAAAGAAAACAUGAGGAUCACCCAUGUAGAAGGCUGAAUAA [Tetraloop BlockHead]”, the results for the “apparent KD of MS2 coat protein” value in data set [1] and in data set [2] were 20.3 nM and 19.4 nM, respectively.

For the sequence “AAUAAGUGAGGAUAUACUAAAGAAAUGAAAAGAAAUAAAGAACAUGAGGAUCACCCAUGUAGAAGGCACAAUAA [Sekheperenre]”, the entries for the “apparent KD of MS2 coat protein” value in data set [1] and in data set [2] were 24.5 nM and 24.4 nM, respectively.

As for “AAUAAGUGAGGAUAUGGAAAUAAUAAAUAAAAUAAAAUAAACCAGAAGGCACAUGAGGAUCACCCAUGUAAAUA [JR_Exc004_Sub002]”, the “apparent KD of MS2 coat protein” value in data set [1] stood at 22 nM; in data set [2], 24.4 nM.

As for “AAUAAUGGAGGAUAUACUAAAGAAAUGAAAAGAAAUAAAGAACAUGAGGAUCACCCAUGUAGAAGGCCAAAUAA [Khamure]”, the “apparent KD of MS2 coat protein” value in data set [1] came out at 27.8 nM; in data set [2] it was 26 nM.

As to “AAUGCGGCAGGAUAUACAUGAGGAUCACCCAUGUAGAUCAGAUAUAUGGGAAAACCAUGUAGAAGGGCCGCAAA [Ex 3May 60]”, the “apparent KD of MS2 coat protein” value was 29.6 nM in data set [1] and 109 nM in data set [2].

Consider “ACAGUUACAGGAUAUACAAAGGUAACUUCAAAGAAAACUCUACAUGAGGAUCACCCAUGUAGAAGGGUAACUGA [Ex2 Design 200 (probably): Random 17]”, for which the “apparent KD of MS2 coat protein” value in data set [1] was 18.2 nM; in data set [2], 14.3 nM.

On to “ACAGUUACAGGAUAUACAAGGAAAAAUAAAAAUAAAAUUCAACAUGAGGAUCACCCAUGUAGAAGGGUAACUGA [Ex2 Design 200: Random 15]”, for which the results for the “apparent KD of MS2 coat protein” value in data set [1] and in data set [2] were 32.1 nM and 30 nM, respectively.

“ACAUGUACAGGAUAUACGUGGAAAAAAAAAAAAAAAAAACUACAUGAGGAUCACCCAUGUAGAAGGGUACAUGA [Ex2 Design 194: Random 12C]”: the figures for the “apparent KD of MS2 coat protein” value in data set [1] and in data set [2] were 37 nM and 26.5 nM, respectively.

Take “ACCUAACAUGAGGAUCACCCAUGUGAGGAUAUAGACGUGAAUUAAACACGUAACAAAACUAGAAGGCACUGGGC [Erbeardi]”: the “apparent KD of MS2 coat protein” value was determined as 16.8 nM in data set [1] and 26.1 nM in data set [2].

For the sequence “ACCUGACAUGAGGAUCACCCAUGUCAGGAUAUGCAUCUUAGGAAAAAAAAACUAAGAUGCAGAAGGGACAUGGG [Design 2: Super Stable 2]”, the “apparent KD of MS2 coat protein” value amounted to 27.5 nM in data set [1] and 25.4 nM in data set [2].

For “ACUAACAGAGGAUAUACUAACAAACCUCAAACAUACAUCAAACAUGAGGAUCACCCAUGUAGAAGGCUGAAACU [JR_Exc002_Sub005]”, the results for the “apparent KD of MS2 coat protein” value in data set [1] and in data set [2] were 27 nM and 26.7 nM, respectively.

In the case of “ACUUAUGAAGGAUAUACUAGCAACAUGCACUCAACACACACACAUGAGGAUCACCCAUGUAGAAGGUCAAACAU [JR_Exc002_Sub1206]”, the results for the “apparent KD of MS2 coat protein” value in data set [1] and in data set [2] were 19.7 nM and 23.2 nM, respectively.

Regarding “AGAAAACAUGAGGAUCACCCAUGUAAGGAUAUGCUGAAAAACACGGAAAAAACGUGCAGCAGAAGGUACAAAGA [Mat - Exclusion 1 - Eli mod - D95]”, the “apparent KD of MS2 coat protein” value in data set [1] is 40.8 nM; in data set [2], 22.4 nM.

Turning to “AGAAAACAUGAGGAUCACCCAUGUCAGGAUAUCCUGCGGUGAUACACACCGCGUUGUCGGAGAAGGGACAGGGA [Tiesesmari]”, the “apparent KD of MS2 coat protein” value was found to be 81.9 nM in data set [1] and 65.6 nM in data set [2].

“AGAAAACAUGAGGAUCACCCAUGUGAGGAUAUGUAAAAGAAAAGAAAAGAAAGAAGAAACAGAAGGCACAAGAA [Nynetjer]”: the “apparent KD of MS2 coat protein” value in data set [1] was 45.6 nM; in data set [2], 24.9 nM.

As for “AGAAAGGCAGGAUAUACAUGAGGAUCACCCAUGUUAAGAAAGACGGAAACGUCAAGAAGUAGAAGGGCCAAGAA [Shaken, but not stirred]”, the “apparent KD of MS2 coat protein” value in data set [1] came to 19.7 nM; in data set [2], 21.9 nM.

Turning to “AGAAAGGUAGGAUAUACGAAAAAAAAGGGUAGAAAAAAAACACAUGAGGAUCACCCAUGUAGAAGGACCAAAGA [Mat - Exclusion 2 - Tesla mod - D31]”, the “apparent KD of MS2 coat protein” value in data set [1] is 47.5 nM; in data set [2], 35.2 nM.

As for “AGAAAGUCAGGAUAUACGAAAGUGCGAAAGCACAAAAGGGAACAUGAGGAUCACCCAUGUAGAAGGGACAAGAA [Diamond 77]”, the “apparent KD of MS2 coat protein” value in data set [1] is 170 nM; in data set [2], 91.4 nM.

As to “AGAAAGUCAGGAUAUCAGAAUAAGUCGAAAACGACUAGUAAUGAGAAGGGACAUGAGGAUCACCCAUGUAAGAA [Ex4 sub 3]”, the figures for the “apparent KD of MS2 coat protein” value in data set [1] and in data set [2] were 37.1 nM and 49 nM, respectively.

For the sequence “AGAAAGUCAGGAUAUGUACAAAAUAAAAUAAAAAUAAAAGUACAGAAGGGACAUGAGGAUCACCCAUGUAAAGA [Mat - Exclusion 4 - Mayanna - D121]”, the “apparent KD of MS2 coat protein” value in data set [1] was determined as 52.4 nM; in data set [2], 50.2 nM.

As for “AGAAAGUCAGGAUAUGUGGAAAAAAUAAAAAAAAUAAAAACACAGAAGGGACAUGAGGAUCACCCAUGUUAAGA [Mat - Exclusion 4 - Mayanna - D139]”, the “apparent KD of MS2 coat protein” value was 30.3 nM in data set [1] and 53.4 nM in data set [2].

As for “AGAAUACAUGAGGAUCACCCAUGUGAGGAUAUAUGAAGAAAAAGAAAAGAAAAGAAACAUAGAAGGCACAAAAG [EX 1 May 16]”, the entries for the “apparent KD of MS2 coat protein” value in data set [1] and in data set [2] were 86.7 nM and 16.1 nM, respectively.

As for “AGAAUACAUGAGGAUCACCCAUGUGAGGAUAUGUGAAGAAAAAGAAAAGAAAAGAAACACAGAAGGCACAAAAG [EX 1 May 17]”, the “apparent KD of MS2 coat protein” value in data set [1] was found to be 69.3 nM; in data set [2], 29.7 nM.

On to “AGCAAGUCAGGAUAUACGAACAAGACAAAAGACGAGAAGGGACAUGAGGAUCACCCAUGUAGAAGGGACAAGCA [74%, Web mod - With 5 less U's]”, for which the “apparent KD of MS2 coat protein” value came to 60.8 nM in data set [1] and 61.9 nM in data set [2].

In the case of “AGCAAGUGAGGAUAUGCGAAGUCAGGACAAACACUGACGAAGCAGAAGGCACAUGAGGAUCACCCAUGUAAGCA [Mat - Exaclusion 4 - Eli mod - D60]”, the “apparent KD of MS2 coat protein” value in data set [1] turned out to be 29.8 nM; in data set [2] it was 28.8 nM.

For “AGCACGUCAGGAUAUACGAAAAAAAAGGGUAAAAAAAACACACAUGAGGAUCACCCAUGUAGAAGGGACAAGCA [Diamond 94]”, the “apparent KD of MS2 coat protein” value was found to be 86.8 nM in data set [1] and 66.8 nM in data set [2].

“AGCUAGAGAGGAUAUACAUGGAAAAAAAAAGUCUGAUCCCUACAUGAGGAUCACCCAUGUAGAAGGCUCUGGCA [Ex2 Design 158: Sub-opt 22]”: the “apparent KD of MS2 coat protein” value is 13 nM in data set [1] and 23.5 nM in data set [2].

“AGCUAGCGAGGAUAUACGAACAUGUCAAAAGACGUGAAGGGACAUGAGGAUCACCCAUGUAGAAGGCGCUAGCA [JL 74% mod 5]”: the “apparent KD of MS2 coat protein” value in data set [1] worked out at 144 nM; in data set [2], 41.1 nM.

In the case of “AGCUAGUCAGGAUAUACAAACAUGUCAAAAGACGUGAAGGGACAUGAGGAUCACCCAUGUAGAAGGGACUAGCA [Web Mod 74% 2]”, the “apparent KD of MS2 coat protein” value in data set [1] turned out to be 217 nM; in data set [2], 52.2 nM.

For the sequence “AGCUAGUCAGGAUAUACGCAAACGAACGAAGCUGAGAAGGGACAUGAGGAUCACCCAUGUAGAAGGGACUAGCA [Diamond 32]”, the entries for the “apparent KD of MS2 coat protein” value in data set [1] and in data set [2] were 55.6 nM and 25.3 nM, respectively.

“AGCUAGUGAGGAUAUACGAACAUGUCAAAAGACGUGAAGGAACAUGAGGAUCACCCAUGUAGAAGGCACUAGCA [Mat - Exclusion 2 - JL-Eli mod - D54]”: the “apparent KD of MS2 coat protein” value in data set [1] is 14.6 nM; in data set [2], 17.2 nM.

As to “AGGAAACAUGAGGAUCACCCAUGUGAGGAUAUUUGAAAGAAAAGAAAAGAAAGAAGAAGAAGAAGGCACAAGAA [Merneith]”, the figures for the “apparent KD of MS2 coat protein” value in data set [1] and in data set [2] were 20.5 nM and 17.6 nM, respectively.
